Measured values from the supplement of paper PMC10567573.

B1: EPB41L3 (parent)
chain: FRFAPNHTKELEDKVIELHKSHRG

Variants of: B1
Test: protein stability index of a GFP-peptide fusion (GPS, HEK-293T) (PSI 1-6); higher = more stable
Conditions: c terminus: a fixed tail appended
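Note: lentivirally expressed fusions sorted by FACS into six bins by GFP to DsRed ratio, PSI derived from sequencing read proportions per bin multiplied by bin number.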

| Variant | protein stability index |
| --- | --- |
| FRFAPDHTKELEDKVIELHKSHRG [N6D] | 2 |
| FRFAPNQTKELEDKVIELHKSHRG [H7Q] | 2.28 |
| FRFAPNNTKELEDKVIELHKSHRG [H7N] | 2.16 |
| FRFAPNDTKELEDKVIELHKSHRG [H7D] | 2.96 |
| FRFAPNCTKELEDKVIELHKSHRG [H7C] | 1.47 |
| FRFAPNATKELEDKVIELHKSHRG [H7A] | 2.83 |
| FRFAPNITKELEDKVIELHKSHRG [H7I] | 2.09 |
| FRFAPNMTKELEDKVIELHKSHRG [H7M] | 2.3 |
| FRFAPNLTKELEDKVIELHKSHRG [H7L] | 1.62 |
| FRFAPNKTKELEDKVIELHKSHRG [H7K] | 1.88 |
| FRFAPNTTKELEDKVIELHKSHRG [H7T] | 1.91 |
| FRFAPNETKELEDKVIELHKSHRG [H7E] | 1.96 |
| FRFAPNGTKELEDKVIELHKSHRG [H7G] | 2.42 |
| FRFAPNRTKELEDKVIELHKSHRG [H7R] | 2.11 |
| FRFAPNFTKELEDKVIELHKSHRG [H7F] | 1.73 |
| FRFAPNVTKELEDKVIELHKSHRG [H7V] | 1.85 |
| FRFAPNYTKELEDKVIELHKSHRG [H7Y] | 2.07 |
| FRFAPNPTKELEDKVIELHKSHRG [H7P] | 2.1 |
| FRFAPNSTKELEDKVIELHKSHRG [H7S] | 1.93 |
| FRFAPNWTKELEDKVIELHKSHRG [H7W] | 1.6 |
| FRFAPNHLKELEDKVIELHKSHRG [T8L] | 1.82 |
| FRFAPNHPKELEDKVIELHKSHRG [T8P] | 1.75 |
| FRFAPNHDKELEDKVIELHKSHRG [T8D] | 2.01 |
| FRFAPNHRKELEDKVIELHKSHRG [T8R] | 1.92 |

| Variant | protein stability index |
| --- | --- |
| FRFAPNHFKELEDKVIELHKSHRG [T8F] | 2.3 |
| FRFAPNHWKELEDKVIELHKSHRG [T8W] | 1.84 |
| FRFAPNHEKELEDKVIELHKSHRG [T8E] | 2.78 |
| FRFAPNHAKELEDKVIELHKSHRG [T8A] | 2.11 |
| FRFAPNHKKELEDKVIELHKSHRG [T8K] | 2.39 |
| FRFAPNHHKELEDKVIELHKSHRG [T8H] | 1.74 |
| FRFAPNHYKELEDKVIELHKSHRG [T8Y] | 2.05 |
| FRFAPNHSKELEDKVIELHKSHRG [T8S] | 1.92 |
| FRFAPNHGKELEDKVIELHKSHRG [T8G] | 1.86 |
| FRFAPNHVKELEDKVIELHKSHRG [T8V] | 1.98 |
| FRFAPNHNKELEDKVIELHKSHRG [T8N] | 2.17 |
| FRFAPNHMKELEDKVIELHKSHRG [T8M] | 2.21 |
| FRFAPNHCKELEDKVIELHKSHRG [T8C] | 2.02 |
| FRFAPNHIKELEDKVIELHKSHRG [T8I] | 2.49 |
| SRFAPNHTKELEDKVIELHKSHRG [F1S] | 4.58 |
| WRFAPNHTKELEDKVIELHKSHRG [F1W] | 2.26 |
| HRFAPNHTKELEDKVIELHKSHRG [F1H] | 4.62 |
| RRFAPNHTKELEDKVIELHKSHRG [F1R] | 4.41 |
| DRFAPNHTKELEDKVIELHKSHRG [F1D] | 4.4 |
| CRFAPNHTKELEDKVIELHKSHRG [F1C] | 2.93 |
| NRFAPNHTKELEDKVIELHKSHRG [F1N] | 3.62 |
| QRFAPNHTKELEDKVIELHKSHRG [F1Q] | 3.89 |
| GRFAPNHTKELEDKVIELHKSHRG [F1G] | 3.6 |
| YRFAPNHTKELEDKVIELHKSHRG [F1Y] | 3.73 |

| Variant | protein stability index |
| --- | --- |
| PRFAPNHTKELEDKVIELHKSHRG [F1P] | 3.99 |
| TRFAPNHTKELEDKVIELHKSHRG [F1T] | 4.12 |
| LRFAPNHTKELEDKVIELHKSHRG [F1L] | 3.78 |
| VRFAPNHTKELEDKVIELHKSHRG [F1V] | 3.08 |
| ARFAPNHTKELEDKVIELHKSHRG [F1A] | 4.17 |
| IRFAPNHTKELEDKVIELHKSHRG [F1I] | 2.69 |
| ERFAPNHTKELEDKVIELHKSHRG [F1E] | 4.2 |
| KRFAPNHTKELEDKVIELHKSHRG [F1K] | 4.35 |
| MRFAPNHTKELEDKVIELHKSHRG [F1M] | 3.68 |
| FRFNPNHTKELEDKVIELHKSHRG [A4N] | 3.77 |
| FRFLPNHTKELEDKVIELHKSHRG [A4L] | 2.82 |
| FRFHPNHTKELEDKVIELHKSHRG [A4H] | 2.42 |
| FRFDPNHTKELEDKVIELHKSHRG [A4D] | 3.9 |
| FRFPPNHTKELEDKVIELHKSHRG [A4P] | 2.98 |
| FRFEPNHTKELEDKVIELHKSHRG [A4E] | 2.87 |
| FRFSPNHTKELEDKVIELHKSHRG [A4S] | 3.9 |
| FRFGPNHTKELEDKVIELHKSHRG [A4G] | 3.08 |
| FRFMPNHTKELEDKVIELHKSHRG [A4M] | 2.65 |
| FRFCPNHTKELEDKVIELHKSHRG [A4C] | 2.2 |
| FRFFPNHTKELEDKVIELHKSHRG [A4F] | 3.19 |
| FRFWPNHTKELEDKVIELHKSHRG [A4W] | 2.41 |
| FRFTPNHTKELEDKVIELHKSHRG [A4T] | 2.24 |
| FRFYPNHTKELEDKVIELHKSHRG [A4Y] | 2.88 |
| FRFIPNHTKELEDKVIELHKSHRG [A4I] | 2.24 |

| Variant | protein stability index |
| --- | --- |
| FRFVPNHTKELEDKVIELHKSHRG [A4V] | 1.82 |
| FRFKPNHTKELEDKVIELHKSHRG [A4K] | 3.06 |
| FRFRPNHTKELEDKVIELHKSHRG [A4R] | 3.33 |
| FRFQPNHTKELEDKVIELHKSHRG [A4Q] | 2.18 |
| FRFALNHTKELEDKVIELHKSHRG [P5L] | 2.75 |
| FRFAFNHTKELEDKVIELHKSHRG [P5F] | 1.24 |
| FRFAENHTKELEDKVIELHKSHRG [P5E] | 3.49 |
| FRFARNHTKELEDKVIELHKSHRG [P5R] | 2.15 |
| FRFANNHTKELEDKVIELHKSHRG [P5N] | 2.24 |
| FRFAMNHTKELEDKVIELHKSHRG [P5M] | 2.31 |
| FRFAVNHTKELEDKVIELHKSHRG [P5V] | 2.37 |
| FRFASNHTKELEDKVIELHKSHRG [P5S] | 1.92 |
| FRFADNHTKELEDKVIELHKSHRG [P5D] | 3.38 |
| FRFAINHTKELEDKVIELHKSHRG [P5I] | 2.63 |
| FRFATNHTKELEDKVIELHKSHRG [P5T] | 2.44 |
| FRFACNHTKELEDKVIELHKSHRG [P5C] | 2.4 |
| FRFAYNHTKELEDKVIELHKSHRG [P5Y] | 1.24 |
| FRFAANHTKELEDKVIELHKSHRG [P5A] | 2.73 |
| FRFAKNHTKELEDKVIELHKSHRG [P5K] | 3.47 |
| FRFAGNHTKELEDKVIELHKSHRG [P5G] | 1.98 |
| FRFAQNHTKELEDKVIELHKSHRG [P5Q] | 2.07 |
| FRFAHNHTKELEDKVIELHKSHRG [P5H] | 2.31 |
